In US20070065890A1, “Method for promoting formation of facultative heterochromatin” (priority 2005, published 2007):

Experiments:
recombinant human H1b = target: T1, recombinant human H1b (Homo sapiens, UniProt P10412); assay: In vitro deacetylation of p300-acetylated recombinant H1b by SirT proteins; format: biochemical; conditions: equal NAD+-exchange units measured using acetylated BSA as substrate
T1 construct: Human histone H1b and H1° were inserted into HA-Pet30c; HA (N); made in house; host or cells: E. coli BL21 (DE3)
Experimental: Detection of H1 acetylation was performed by using 4 μg of histone H1 (Upstate Biotechnology, Inc., Lake Placid, N.Y.) as an acetylated substrate for SirT1 in the NER. Deacetylation was determined by first performing a deacetylation assay using 20 and 40 μg of H1 and 6 nmol of SirT1. H1 was then isolated in the supernatant of chilled 5% perchloric acid, TCA precipitated (Albig, et al. (1998) FEBS Lett. 435:245-250), and resuspended in buffer C containing 100 mM KCl. Deacetylated H1 was then used in a subsequent NER. In vitro acetylation of H1 or recombinant H1b expressed in E. coli was carried out by incubating 10 μg H1 with 2 nmol baculovirus-generated p300 in the presence of 0.875 μCi [H^3]-Ac-CoA (Amersham, Piscataway, N.J.) in HAT buffer (75 mM Tris-HCl [pH 8.8], 135 mM NaCl). Deacetylation was carried out with the specified enzyme as above using 1 μg of the labeled Hi. […] Counts were then determined by liquid scintillation (PERKINELMER, Wellesley, Mass.) . […] In vivo H1 acetylation was analyzed by treating 293 cells for 18 hours in media containing 5 mM nicotinamide. H1 was purified as described (Albig, et al. (1998) supra) and analyzed in the NER. […]
SirT1 activity on histone H1 was directly tested in vitro. […] The same result was observed using recombinant human H1b; however, specificity was also scored in this assay using different SirT proteins.

[1] = test system: pTK-Luc reporter under the control of Gal4; assay: Transient transfection Gal4 pTK-Luc reporter assay; format: cell-based; conditions: 293F cells, luciferase normalized to β-galactosidase
Experimental: Transfections. All transfections were carried out in 293F cells using the indicated plasmids and POLYFECT (QIAGEN, Valencia, Calif.) following the protocol provided by the manufacturer. Nuclear and cytoplasmic fractions were isolated by a modified protocol (Dignam, et al. (1983) Methods Enzymol. 101:582-598). Fractions were analyzed by immunoprecipitation with the indicated antibodies followed by immunoblotting, or by luciferase activity (TD20e luminometer; Turner BioSystems, Sunnyvale, Calif.) . In the case of transient transfections, a β-gal reporter was used as a transfection control and the levels of luciferase activity were normalized to those of β-galactosidase, shown as a percentage. dsRNAi was ordered as a custom SMARTPOOL against SirT1 (Dharmacon, Lafayette, Colo.) and was transfected into U2OS cells using RNAFECT (QIAGEN, Valencia, Calif.). After incubation for 48 hours, cells were harvested and lysed with RIPA buffer (50 mM Tris-HCl, pH 7.4, 1% NP40, 0.25% Na-deoxycholate, 150 mM NaCl, 1 mM EDTA, 1 mM PMSF, 1 mM leupeptin, 1 mM aprotinin, and 1 mM pepstatin). Western blots were performed using the indicated antibodies. Total H4 was visualized by both western and COOMASSIE blue staining.
Plasmids. […]

T1 sequence (P10412 2-219): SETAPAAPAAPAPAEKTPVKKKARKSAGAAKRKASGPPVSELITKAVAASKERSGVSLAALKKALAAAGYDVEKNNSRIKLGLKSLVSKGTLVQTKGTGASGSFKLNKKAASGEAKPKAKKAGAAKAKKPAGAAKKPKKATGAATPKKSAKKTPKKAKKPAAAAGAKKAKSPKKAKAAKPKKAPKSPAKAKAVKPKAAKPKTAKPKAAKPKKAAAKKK

B1: SirT2: Recombinant SirT2 expressed in E. coli (protein)
chain: MAEPDPSHPLETQAGKVQEAQDSDSDSEGGAAGGEADMDFLRNLFSQTLSLGSQKERLLDELTLEGVARYMQSERCRRVICLVGAGISTSAGIPDFRSPSTGLYDNLEKYHLPYPEAIFEISYFKKHPEPFFALAKELYPGQFKPTICHYFMRLLKDKGLLLRCYTQNIDTLERIAGLEQEDLVEAHGTFYTSHCVSASCRHEYPLSWMKEKIFSEVTPKCEDCQSLVKPDIVFFGESLPARFFSCMQSDFLKVDLLLVMGTSLQVQPFASLISKAPLSTPRLLINKEKAGQSDPFLGMIMGLGGGMDFDSKKAYRDVAWLGECDQGCLALAELLGWKKELEDLVRREHASIDAQSGAGVPNPSTSASPKKSPPPAKDEARTTEREKPQ
- H1b deacetylation (recombinant human H1b): failed to significantly deacetylate H1b

B2: SirT3: Recombinant SirT3 expressed from baculovirus in SF9 cells (protein)
chain: MAFWGWRAAAALRLWGRVVERVEAGGGVGPFQACGCRLVLGGRDDVSAGLRGSHGARGEPLDPARPLQRPPRPEVPRAFRRQPRAAAPSFFFSSIKGGRRSISFSVGASSVVGSGGSSDKGKLSLQDVAELIRARACQRVVVMVGAGISTPSGIPDFRSPGSGLYSNLQQYDLPYPEAIFELPFFFHNPKPFFTLAKELYPGNYKPNVTHYFLRLLHDKGLLLRLYTQNIDGLERVSGIPASKLVEAHGTFASATCTVCQRPFPGEDIRADVMADRVPRCPVCTGVVKPDIVFFGEPLPQRFLLHVVDFPMADLLLILGTSLEVEPFASLTEAVRSSVPRLLINRDLVGPLAWHPRSRDVAQLGDVVHGVESLVELLGWTEEMRDLVQRETGKLDGPDK
- H1b deacetylation (recombinant human H1b): failed to significantly deacetylate H1b

B3: G4-SirT1: SirT1 fused to the Gal4 DNA binding domain (protein)
chain: MKLLSSIEQACDICRLKKLKCSKEKPKCAKCLKNNWECRYSPKTKRSPLTRAHLTEVESRLERLEQLFLLIFPREDLDMILKMDSLQDIKALLTGLFVQDNVNKDAVTDRLASVETDMPLTLRQHRISATSSSEESSNKGQRQLTVSMADEAALALQPGGSPSAAGADREAASSPAGEPLRKRPRRDGPGLERSPGEPGGAAPEREVPAAARGCPGAAAAALWREAEAEAAAAGGEQEAQATAAAGEGDNGPGLQGPSREPPLADNLYDEDDDDEGEEEEEAAAAAIGYRDNLLFGDEIITNGFHSCESDEEDRASHASSSDWTPRPRIGPYTFVQQHLMIGTDPRTILKDLLPETIPPPELDDMTLWQIVINILSEPPKRKKRKDINTIEDAVKLLQECKKIIVLTGAGVSVSCGIPDFRSRDGIYARLAVDFPDLPDPQAMFDIEYFRKDPRPFFKFAKEIYPGQFQPSLCHKFIALSDKEGKLLRNYTQNIDTLEQVAGIQRIIQCHGSFATASCLICKYKVDCEAVRGDIFNQVVPRCPRCPADEPLAIMKPEIVFFGENLPEQFHRAMKYDKDEVDLLIVIGSSLKVRPVALIPSSIPHEVPQILINREPLPHLHFDVELLGDCDVIINELCHRLGGEYAKLCCNPVKLSEITEKPPRTQKELAYLSELPPTPLHVSEDSSSPERTSPPDSSVIVTLLDQAAKSNDDLDVSESKGCMEEKPQEVQTSRNVESIAEQMENPDLKNVGSSTGEKNERTSVAGTVRKCWPNRVAKEQISRRLDGNQYLFLPPNRYIFHGAEVYSDSEDDVLSSSSCGSNSDSGTCQSPSLEEPMEDESEIEEFYNGLEDEPDVPERAGGAGFGTDGDDQEAINEAISVKQEVTDMNYPSNKS
- repression of reporter expression [1]: approximately 100%
